Source: publication doi:10.1101/2023.03.05.531154

Target: Man5GlcNAc2-enriched CH505.M5.G458Y chimeric SOSIP gp140 Env trimer (HIV-1 (CH505 transmitted/founder virus) | HIV-1)
Assay: BLI

| Substance | Kd |
| --- | --- |
| CH235 UCA IgG (antibody) | 4.5 nM |
| CH235.12 Fab | 0.2 nM |
